This note sets out measurements from PMC5451065.

For experiment [1], the target named is cytochrome c oxidase (complex IV) (rat (endogenous in rat liver mitoplasts)). To be noted: for Amax of the cytochrome c oxidase reaction, rat liver mitoplasts without cytochrome c: scale: μg atom of the oxygen/min per 1 mg of the protein.
Experiment [2] addresses ubiquinol–cytochrome c reductase (complex III) (rat (endogenous in rat liver mitoplasts)). As to conditions: for Amax of the succinate:cytochrome c reductase reaction, rat liver mitoplasts without cytochrome c: scale: μmol of the cyt c /min × mg of the protein.

Regarding “horse cytochrome c I75G/G77R/T78I (from UniProt P00004 1-105) (natural protein)”, in experiment [1], the Amax(mut)/Amax(wt) of the cytochrome c oxidase reaction was 86.7%; the Km of the cytochrome c oxidase reaction, rat liver mitoplasts without cytochrome c is 6.47 μM of cyt c; the Amax of the cytochrome c oxidase reaction, rat liver mitoplasts without cytochrome c was determined as 0.636. Moreover, in experiment [2], the Amax(mut)/Amax(wt) of the succinate:cytochrome c reductase reaction came to 19.5%; the Km of the succinate:cytochrome c reductase reaction, rat liver mitoplasts without cytochrome c is 20.7 μM of cyt c; the Amax of the succinate:cytochrome c reductase reaction, rat liver mitoplasts without cytochrome c is 0.024.
As to “horse cytochrome c T78A/K79A/I81A/F82T/T89A (from UniProt P00004 1-105) (natural protein)”, in experiment [1], the Amax(mut)/Amax(wt) of the cytochrome c oxidase reaction came to 92.3%; the Km of the cytochrome c oxidase reaction, rat liver mitoplasts without cytochrome c was 5.31 μM of cyt c; the Amax of the cytochrome c oxidase reaction, rat liver mitoplasts without cytochrome c is 0.677. In experiment [2], the Amax(mut)/Amax(wt) of the succinate:cytochrome c reductase reaction is 2.4%; the Km of the succinate:cytochrome c reductase reaction, rat liver mitoplasts without cytochrome c was 5.08 μM of cyt c; the Amax of the succinate:cytochrome c reductase reaction, rat liver mitoplasts without cytochrome c came out at 0.003.
As for “horse cytochrome c I81Y/A83Y/G84N (from UniProt P00004 1-105) (natural protein)”, in experiment [1], the Amax(mut)/Amax(wt) of the cytochrome c oxidase reaction worked out at 23.6%; the Km of the cytochrome c oxidase reaction, rat liver mitoplasts without cytochrome c was 5 μM of cyt c; the Amax of the cytochrome c oxidase reaction, rat liver mitoplasts without cytochrome c turned out to be 0.173. In experiment [2], the Amax(mut)/Amax(wt) of the succinate:cytochrome c reductase reaction came out at 13%; the Km of the succinate:cytochrome c reductase reaction, rat liver mitoplasts without cytochrome c is 24.7 μM of cyt c; the Amax of the succinate:cytochrome c reductase reaction, rat liver mitoplasts without cytochrome c is 0.016.
With “horse cytochrome c T78A/K79A/I81A/F82T (from UniProt P00004 1-105) (natural protein)”, in experiment [1], the Amax(mut)/Amax(wt) of the cytochrome c oxidase reaction was 61.8%; the Km of the cytochrome c oxidase reaction, rat liver mitoplasts without cytochrome c was 5.31 μM of cyt c; the Amax of the cytochrome c oxidase reaction, rat liver mitoplasts without cytochrome c was 0.453. Also, in experiment [2], the Amax(mut)/Amax(wt) of the succinate:cytochrome c reductase reaction was 3.2%; the Km of the succinate:cytochrome c reductase reaction, rat liver mitoplasts without cytochrome c was 8.94 μM of cyt c; the Amax of the succinate:cytochrome c reductase reaction, rat liver mitoplasts without cytochrome c was 0.004.
With “horse cytochrome c I81L/F82S/A83S/G84A (from UniProt P00004 1-105) (natural protein)”, in experiment [1], the Amax(mut)/Amax(wt) of the cytochrome c oxidase reaction came out at 92.1%; the Km of the cytochrome c oxidase reaction, rat liver mitoplasts without cytochrome c was 5.77 μM of cyt c; the Amax of the cytochrome c oxidase reaction, rat liver mitoplasts without cytochrome c amounted to 0.675. In experiment [2], the Amax(mut)/Amax(wt) of the succinate:cytochrome c reductase reaction was determined as 44.7%; the Km of the succinate:cytochrome c reductase reaction, rat liver mitoplasts without cytochrome c is 20.7 μM of cyt c; the Amax of the succinate:cytochrome c reductase reaction, rat liver mitoplasts without cytochrome c came out at 0.055.
Regarding “wild-type horse cytochrome c (from UniProt P00004 1-105) (natural protein)”, in experiment [1], the Km of the cytochrome c oxidase reaction, rat liver mitoplasts without cytochrome c is 5.4 μM of cyt c and the Amax of the cytochrome c oxidase reaction, rat liver mitoplasts without cytochrome c amounted to 0.733. Moreover, in experiment [2], the Km of the succinate:cytochrome c reductase reaction, rat liver mitoplasts without cytochrome c was 20.9 μM of cyt c and the Amax of the succinate:cytochrome c reductase reaction, rat liver mitoplasts without cytochrome c is 0.123.
Consider “horse cytochrome c T78S/K79P (from UniProt P00004 1-105) (natural protein)”, for which, in experiment [1], the Amax(mut)/Amax(wt) of the cytochrome c oxidase reaction was determined as 47.5%; the Km of the cytochrome c oxidase reaction, rat liver mitoplasts without cytochrome c is 5.04 μM of cyt c; the Amax of the cytochrome c oxidase reaction, rat liver mitoplasts without cytochrome c came out at 0.348. Further, in experiment [2], the Amax(mut)/Amax(wt) of the succinate:cytochrome c reductase reaction stood at 3.2%; the Km of the succinate:cytochrome c reductase reaction, rat liver mitoplasts without cytochrome c is 17.4 μM of cyt c; the Amax of the succinate:cytochrome c reductase reaction, rat liver mitoplasts without cytochrome c was 0.004.
“horse cytochrome c T78N/K79Y/M80I/I81M/F82N (from UniProt P00004 1-105) (natural protein)”: in experiment [1], the Amax(mut)/Amax(wt) of the cytochrome c oxidase reaction was 38.6%; the Km of the cytochrome c oxidase reaction, rat liver mitoplasts without cytochrome c is 4.96 μM of cyt c; the Amax of the cytochrome c oxidase reaction, rat liver mitoplasts without cytochrome c came to 0.283. Also, in experiment [2], the Amax(mut)/Amax(wt) of the succinate:cytochrome c reductase reaction was 6.5%; the Km of the succinate:cytochrome c reductase reaction, rat liver mitoplasts without cytochrome c is 11 μM of cyt c; the Amax of the succinate:cytochrome c reductase reaction, rat liver mitoplasts without cytochrome c stood at 0.008.
Regarding “horse cytochrome c K79V/I81L/F82R (from UniProt P00004 1-105) (natural protein)”, in experiment [1], the Amax(mut)/Amax(wt) of the cytochrome c oxidase reaction was found to be 97.8%; the Km of the cytochrome c oxidase reaction, rat liver mitoplasts without cytochrome c is 6.19 μM of cyt c; the Amax of the cytochrome c oxidase reaction, rat liver mitoplasts without cytochrome c turned out to be 0.717. Further, in experiment [2], the Amax(mut)/Amax(wt) of the succinate:cytochrome c reductase reaction came to 8.1%; the Km of the succinate:cytochrome c reductase reaction, rat liver mitoplasts without cytochrome c is 1.24 μM of cyt c; the Amax of the succinate:cytochrome c reductase reaction, rat liver mitoplasts without cytochrome c is 0.01.
